Measurements taken from patent US20190060394A1 (HONG KONG BAPTIST UNIVERSITY, published 2019).
Where no end group is shown, it is not given here. [ ]: non-standard residue; d: D form. Ahx = NCCCCCC(=O)O

Experiments:
[1] = biological target: bovine serum albumin (BSA) (bovine) (UniProt P02769); experiment: luminescence titration, selectivity assay
[2] = biological target: T1, Wild type EBNA1 protein (379-641 a.a.) fusing with glutathione S-transferase (Epstein-Barr virus, UniProt P03211 379-641); experiment: luminescence titration in PBS, same conditions as L2P4
T1 construct: Expressed in E. coli (BL21), purified on glutathione sepharose; also called WT-EBNA1; WT EBNA1; not shown: glutathione S-transferase (GST) fusion partner
T1 sequence: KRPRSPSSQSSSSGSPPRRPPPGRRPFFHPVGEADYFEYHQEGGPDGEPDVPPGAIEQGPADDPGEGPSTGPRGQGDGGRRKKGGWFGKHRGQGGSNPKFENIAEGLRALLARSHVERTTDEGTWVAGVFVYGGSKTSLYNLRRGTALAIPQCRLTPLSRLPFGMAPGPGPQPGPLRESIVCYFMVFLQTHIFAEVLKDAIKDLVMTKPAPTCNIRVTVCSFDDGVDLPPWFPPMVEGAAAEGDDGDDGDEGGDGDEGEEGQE

[3] = biological target: T1, Wild type EBNA1 protein (379-641 a.a.) …; experiment: luminescence titration in PBS, double logarithm regression
[4] = biological target: T1, Wild type EBNA1 protein (379-641 a.a.) …; experiment: luminescence titration in PBS buffer
[5] = biological target: T2, EBNA1-Y561A (EBNA1 379-641 GST fusion with point mutation Y561A) (Epstein-Barr virus, UniProt P03211 379-641); experiment: luminescence titration, selectivity assay
T2 construct: Made by site-directed mutagenesis of the WT construct; not shown: glutathione S-transferase (GST) fusion partner
T2 sequence: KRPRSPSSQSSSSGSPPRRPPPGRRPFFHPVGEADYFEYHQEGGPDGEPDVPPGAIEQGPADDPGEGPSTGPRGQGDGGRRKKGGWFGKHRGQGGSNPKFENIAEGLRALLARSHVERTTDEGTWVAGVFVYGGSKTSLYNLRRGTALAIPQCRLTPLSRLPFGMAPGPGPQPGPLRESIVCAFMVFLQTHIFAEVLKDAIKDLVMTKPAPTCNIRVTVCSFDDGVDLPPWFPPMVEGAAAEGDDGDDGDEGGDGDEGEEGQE

[6] = biological target: T3, EBNA1-M563A (EBNA1 379-641 GST fusion with point mutation M563A) (Epstein-Barr virus, UniProt P03211 379-641); experiment: luminescence titration, selectivity assay
T3 construct: Made by site-directed mutagenesis of the WT construct; not shown: glutathione S-transferase (GST) fusion partner
T3 sequence: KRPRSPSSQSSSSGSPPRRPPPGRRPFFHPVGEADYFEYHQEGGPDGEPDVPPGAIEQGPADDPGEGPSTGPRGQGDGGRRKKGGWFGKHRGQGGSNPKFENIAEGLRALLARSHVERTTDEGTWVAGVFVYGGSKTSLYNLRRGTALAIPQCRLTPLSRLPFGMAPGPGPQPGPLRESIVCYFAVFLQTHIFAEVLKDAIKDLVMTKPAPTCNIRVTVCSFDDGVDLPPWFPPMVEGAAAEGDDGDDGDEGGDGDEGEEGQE

[7] = biological target: T4, EBNA1-3A (EBNA1 379-641 GST fusion with YFMVF mutated to FFAVA) (Epstein-Barr virus, UniProt P03211 379-641); experiment: luminescence titration, selectivity assay
T4 construct: also called EBNA1-3A mutant; mutant EBNA1; not shown: glutathione S-transferase (GST) fusion partner
T4 sequence: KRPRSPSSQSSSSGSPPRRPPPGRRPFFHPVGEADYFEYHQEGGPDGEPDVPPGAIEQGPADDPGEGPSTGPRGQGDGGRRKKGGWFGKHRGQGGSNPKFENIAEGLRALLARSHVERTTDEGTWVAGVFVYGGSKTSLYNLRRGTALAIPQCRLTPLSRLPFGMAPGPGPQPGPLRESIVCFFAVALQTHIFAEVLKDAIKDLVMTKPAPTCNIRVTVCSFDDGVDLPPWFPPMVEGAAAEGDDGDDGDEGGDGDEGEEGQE

[8] = biological target: T5, EBNA1-F565A (EBNA1 379-641 GST fusion with point mutation F565A) (Epstein-Barr virus, UniProt P03211 379-641); experiment: luminescence titration, selectivity assay
T5 construct: Made by site-directed mutagenesis of the WT construct; not shown: glutathione S-transferase (GST) fusion partner
T5 sequence: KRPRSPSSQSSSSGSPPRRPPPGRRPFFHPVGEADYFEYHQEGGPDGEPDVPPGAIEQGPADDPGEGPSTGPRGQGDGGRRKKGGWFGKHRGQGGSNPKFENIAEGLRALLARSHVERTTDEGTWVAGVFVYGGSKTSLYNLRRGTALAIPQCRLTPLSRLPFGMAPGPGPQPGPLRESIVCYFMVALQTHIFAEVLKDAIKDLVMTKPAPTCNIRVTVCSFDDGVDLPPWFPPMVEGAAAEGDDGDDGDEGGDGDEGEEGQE

[9] = biological target: T6, EBNA1 as present in the nucleus of EBV-positive cells (C666-1, NPC43, Raji) (Epstein-Barr virus, UniProt P03211 1-641); experiment: cell-based or functional assay
T6 sequence: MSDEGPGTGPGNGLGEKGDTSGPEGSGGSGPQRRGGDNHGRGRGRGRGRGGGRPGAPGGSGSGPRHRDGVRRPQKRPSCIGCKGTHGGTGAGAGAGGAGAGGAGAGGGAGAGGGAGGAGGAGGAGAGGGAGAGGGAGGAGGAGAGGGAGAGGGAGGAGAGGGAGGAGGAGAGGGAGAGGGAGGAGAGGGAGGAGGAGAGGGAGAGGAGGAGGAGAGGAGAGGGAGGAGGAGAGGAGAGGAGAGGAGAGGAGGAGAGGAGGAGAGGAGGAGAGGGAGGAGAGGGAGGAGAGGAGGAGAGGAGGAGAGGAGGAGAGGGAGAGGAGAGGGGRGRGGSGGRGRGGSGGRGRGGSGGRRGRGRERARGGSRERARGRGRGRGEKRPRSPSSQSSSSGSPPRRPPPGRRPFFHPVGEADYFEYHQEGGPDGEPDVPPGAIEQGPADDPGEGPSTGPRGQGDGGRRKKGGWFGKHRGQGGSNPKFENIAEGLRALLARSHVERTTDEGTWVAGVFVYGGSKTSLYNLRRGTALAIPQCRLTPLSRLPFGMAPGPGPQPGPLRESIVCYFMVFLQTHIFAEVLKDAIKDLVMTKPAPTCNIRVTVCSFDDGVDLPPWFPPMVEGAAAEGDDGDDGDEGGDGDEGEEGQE

Sequence of bovine serum albumin (BSA) (bovine) (P02769 25-607 limits assumed): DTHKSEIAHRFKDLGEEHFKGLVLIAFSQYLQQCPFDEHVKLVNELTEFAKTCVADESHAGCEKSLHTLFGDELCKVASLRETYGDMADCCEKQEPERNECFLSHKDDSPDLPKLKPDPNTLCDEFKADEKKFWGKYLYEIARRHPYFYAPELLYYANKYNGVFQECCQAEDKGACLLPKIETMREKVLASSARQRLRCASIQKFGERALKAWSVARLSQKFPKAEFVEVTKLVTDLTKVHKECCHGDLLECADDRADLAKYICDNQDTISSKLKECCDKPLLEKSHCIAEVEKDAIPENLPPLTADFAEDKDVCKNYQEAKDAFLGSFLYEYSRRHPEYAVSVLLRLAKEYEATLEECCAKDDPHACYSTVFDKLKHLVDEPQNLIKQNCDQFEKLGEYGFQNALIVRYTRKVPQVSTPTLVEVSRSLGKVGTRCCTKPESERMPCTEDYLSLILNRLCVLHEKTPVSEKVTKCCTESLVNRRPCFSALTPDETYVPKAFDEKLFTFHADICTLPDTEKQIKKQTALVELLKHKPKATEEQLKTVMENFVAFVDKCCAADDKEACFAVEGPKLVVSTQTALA

L2P4 (peptide conjugate: L2, 4-(4-(diethylamino)styryl)-N-carboxymethylpyridinium, coupled through an amide bond to peptide P4, CAhxYFMVFGGRrRK)
log Kassoc [1]: 4.7 log Kassoc

B1: L2P3 (peptide conjugate: L2 coupled to peptide P3, CAhxRrRKGGYFMVF) (peptide)
peptide: C[Ahx]R[dR]RKGGYFMVF-NH2
modifications: not fully specified (N-terminus); printed as CAhxRrRKGGYFMVF; also: L2 dye coupled to the peptide, site not given here
notes: Fluorescent dye-peptide conjugate
increase in emission intensity (fold) [2]: 4.7 fold | binding ratio [3]: 1 probe : WT-EBNA1

B2: L2P2 (peptide conjugate: L2 coupled to peptide P2, YFMVF) (peptide)
peptide: YFMVF-NH2
modifications: not fully specified (N-terminus); also: L2 dye coupled to the peptide, site not given here
notes: as for B1
binding result [4]: no binding

B3: L2P4 (peptide conjugate: L2, 4-(4-(diethylamino)styryl)-N-carboxymethylpyridinium, coupled through an amide bond to peptide P4, CAhxYFMVFGGRrRK) (peptide)
peptide: CXYFMVFGGRXRK
modifications: L2 (4-(4-(diethylamino)styryl)-N-carboxymethylpyridinium) coupled to the peptide through an amide bond; Ahx = 6-aminohexanoic acid (position 2); r = D-arginine (position 11); synthesised on Rink amide resin
notes: Fluorescent dye-peptide conjugate; also called formula (I)
log Kassoc [5]: 5.1 log Kassoc | log Kassoc [6]: 3.6 log Kassoc | log Kassoc [7]: 3.9 log Kassoc | log Kassoc [8]: 4.3 log Kassoc | in vitro emission intensity in the nucleus of EBV-positive C666-1 cells (confocal microscopy), L2P4 against L2P3 [9]: 3 fold over L2P3
